Source: paper PMC2955198 (Cell, 2010)

Target: T1, Csm1/Lrs4 complex (S. cerevisiae, UniProt P25651 1-190; Q04087 1-347)
T1 sequence (looked up) 1: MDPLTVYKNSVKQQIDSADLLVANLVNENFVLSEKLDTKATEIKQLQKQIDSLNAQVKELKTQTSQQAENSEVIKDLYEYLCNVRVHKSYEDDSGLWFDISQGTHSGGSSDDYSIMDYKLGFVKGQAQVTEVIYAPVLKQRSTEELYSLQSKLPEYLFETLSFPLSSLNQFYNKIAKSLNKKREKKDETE
T1 sequence (looked up) 2: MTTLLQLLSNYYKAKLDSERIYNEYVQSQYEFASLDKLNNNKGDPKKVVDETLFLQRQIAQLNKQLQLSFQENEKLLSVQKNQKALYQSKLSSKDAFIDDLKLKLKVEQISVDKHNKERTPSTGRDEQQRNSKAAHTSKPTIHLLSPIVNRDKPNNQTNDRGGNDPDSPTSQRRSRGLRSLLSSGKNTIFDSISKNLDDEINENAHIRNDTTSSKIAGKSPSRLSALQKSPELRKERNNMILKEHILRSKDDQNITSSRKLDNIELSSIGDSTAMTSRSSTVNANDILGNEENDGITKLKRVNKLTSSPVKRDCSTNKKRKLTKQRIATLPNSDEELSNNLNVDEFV
Assay: SEC

stoichiometry N: ≤ 4 MIND complexes per Csm1/Lrs4 complex
B1: purified four-protein MIND (Mtw1 including Nsl1, Nnf1, and Dsn1) kinetochore complex (complex, S. cerevisiae)
chain 1: MSAPTMRSTSILTEHLGYPPISLVDDIINAVNEIMYKCTAAMEKYLLSKSKIGEEDYGEEIKSGVAKLESLLENSVDKNFDKLELYVLRNVLRIPEEYLDANVFRLENQKDLVIVDENELKKSEEKLREKVNDVELAFKKNEMLLKRVTKVKRLLFTIRGFKQKLNELLKCKDDVQLQKILESLKPIDDTMTLLTDSLRKLYVDSESTSSTEEVEALLQRLKTNGKQNNKDFRTRYIDIRTNNVLRKLGLLGDKEDEKQSAKPDARTQAGDIVSIDIEEPQLDLLDDVL
chain 2: MSQGQSKKLDVTVEQLRSIYHQFHDILEEKTDLHLPKKEYDDDAVRREVQIQLQEFLLSAMTMASKSLEVVNADTVGKTVKQLIMESQEKYMEPFDLDLNEQVRKMYQEWEDETVKVAQLRQTGPAKINEVYNNSKDEYLAQLDGRIGVLQARMMQQQSADHDDSTDDADDHINWEHIKQDYVASLNELYQTQQDLPKVRYNVEKVKRLMDFLEED
chain 3: MVNSHGIRYIRLKQVFNRALDQSISKLQSWDKVSSCFPQYVNSKQGAINVANCQRQLTEFWTELCQREFKEIMEERNVEQKLNELDELILEAKERYTDRDQDEVNKGPAIDELSSKELVECHLYSQRMHAIHEIDERLAKVNEMNDQLAQELKDLETQVEVEKNEIGKMYDEYLGSHTDQPANVLLVQSLNDMVLELKENY
chain 4: MSLEPTQTVSGTPPMLHQRTHKQVYPLRMETIPILESDSKATLQSNEPTQKDEEETEYFENKQSVSNLSPDLKFKRHKNKHIQGFPTLGERLDNLQDIKKAKRVENFNSSAPIADDNHSGDATANATANATANATANVNASAMPAPYMPYYYYYHPMNAPTPAMIPYPGSPMHSIMPNSSLQPFYSQPTAAGGPDMTTPQNISSSQQLLPAPQLFPYGSFHQQQLQQPHYIQRTRERKKSIGSQRGRRLSMLASQANGGSTIISPHKDIPEEDFYTVVGNASFGKNLQIRQLFNWCLMRSLHKLELKAKNQEEEGELEHLTKKSKLESTKAETDYVDPKRLAMVIIKEFVDDLKKDHIAIDWEDEEKYEDEDEEKILDNTENYDDTELRQLFQENDDDDDDDDEVDYSEIQRSRRKFSERRKALPKEPKKLLPNSKNVENTKNLSILTSKVNAIKNEVKEWAVTLDTSRPDLEWQELTSFSSQPLEPLSDTEEPDLAIADVETKLETKVDELRYQSHILNSHSLALNEITNSKVNKLNIETMRKISSETDDDHSQVINPQQLLKGLSLSFSKKLDL
